Source: patent US20220275357A1, “CAPSULE PROTEIN AND MULTIMERIC COMPLEX COMPOSITION THEREOF, AND PHARMACEUTICAL COMPOSITION USING SAME” (UNIVERSITY PUBLIC CORPORATION OSAKA, priority 2019, published 2022)
Positions count from the first letter of the chain named. Numbers in names are those of the source.

B1: mutant L-PGDS: human L-PGDS variant SEQ ID NO: 2 with C45A and C147A substitutions, GS added to N-terminus (protein)
chain: GSAPEAQVSVQPNFQQDKFLGRWFSAGLASNSSWLREKKAALSMAKSVVAPATDGGLNLTSTFLRKNQCETRTMLLQPAGSLGSYSYRSPHWGSTYSVSVVETDYDQYALLYSQGSKGPGEDFRMATLYSRTQTPRAELKEKFTAFAKAQGFTEDTIVFLPQTDKCMTEQ
modifications: N-terminal GS added; Enzyme inactivation Mutant
B2: barrier-attached mutant (protein)
chain: B1 chain with M74W
modifications: Barrier Mutant

Columns and labels:
Assay type in all cases: physicochemical
[1] = Size measurement by small-angle X-ray scattering (SAXS); conditions: 25° C.; for Rg: radius of gyration from Guinier region
Protocol: Size of the obtained octameric composition was measured by small-angle X-ray scattering (SAXS). For comparison, size of the mutant L-PGDS was also measured.
SAXS data collection was carried out at BL40B2, a beamline in the SPring-8 synchrotron radiation facility (Sayo-gun, Hyogo). The X-ray wavelength was tuned to 1.000 A (angstrom), the sample-to-detector distance was set to 2.193 m, and the experiments were performed at 25° C. The exposure times for each measurement were 20 to 50 s. Scattering intensity was recorded with PILATUS-2M (RIGAKU, Tokyo) as a detector.
A sample cell with a thickness of 3.0 mm was used to maximize scattering of X-ray. The windows of the cell were made of 0.02 mm thick quartz plates. To avoid systematic errors, the inventor measured the sample (protein) and buffer solutions alternately. 25 μL of a sample solution was placed in the cell for its data collection. The solution was removed from the cell; and the cell was then washed 3 times with a buffer solution before data collection of the next sample solution.
Two-dimensionally recorded scattering patterns of the protein sample and the buffer solutions were transformed to a one-dimensional profile by circular averaging. Contributions to scattering intensities from the solvent were eliminated from the raw data of the sample solutions by subtracting the intensity profile obtained for the buffer solution. Scattering profiles in the small-angle region were analyzed by Guinier's approximation for monodispersive systems: The scattering intensity (I (S,C)) as a function of reciprocal vector (S) and protein concentration (C), is expressed by the forward scattering intensity (I(0,C)) and the radius of gyration Rg(C) (See the following formula (1)).
wherein, 2θ represents the scattering angle relative to the incident beam, and λ represents the X-ray wavelength.
The radius of gyration Rg for each sample solution was calculated from Guinier region in its scattering profile. […]

[2] = Drug releasing capacity: equilibrium dialysis of SN-38-loaded capsule proteins
Protocol: (§1) With a dialysis membrane (Dialysis Membrane, Size 27 Wako molecular weight cut-off: 14,000), each 5 mL of samples was each dialyzed against 150 mL of PBS as an external solution in an incubator at 37° C. for 72 hours. Each of the samples included the solution of SN-38/mutant L-PGDS, SN-38/barrier-attached D-clip mutant or SN-38/targeting barrier-attached D-clip mutant. The samples were prepared to contain 50 uM of SN-38 and 50 uM of the respective capsule proteins.
(§2) At 0, 1, 3, 6, 8, 12, 24, 36, 48, 60, and 72 hours after the start of dialysis, 500 μL of the external solution was sampled, and the same amount of PBS was added instead. SN-38 concentration in the sampled external solutions was measured with a fluorescence spectrophotometer F-7000 (HITACHI; excitation wavelength: 365 nm; measuring wavelength: 380 to 600 nm; and monitoring temperature: 37° C.).
Subsequently, drug release function in response to a reducing environment of the barrier-attached D-clip mutant and the targeting barrier-attached D-clip mutant was evaluated by equilibrium dialysis method in the same manner as described above. PBS and 10 mM DTT/PBS solutions were used as the external solutions for dialysis. The external PBS and 10 mM DTT/PBS solutions simulated oxidizing and reducing environments, respectively.
The horizontal axis represents reaction time (hr), and the vertical axis represents SN-38 concentration (nM). Error bars represent the standard error of the mean, or mean±standard error (n=3). The abbreviations or symbols in the figure have the following meanings: “SN-38/L-PGDS” or “●” represents SN-38/mutant L-PGDS; “SN-38/Capsule” or “▴” represents SN-38/barrier-attached D-clip mutant; and “SN-38/Cap-sCRGDK” or “▪” represents SN-38/targeting barrier-attached D-clip mutant. The symbols “Δ” and “□” with“+10 mM DTT” represent the results of the pharmaceutical compositions, i.e.“SN-38/Capsule” and “SN-38/Cap-sCRGDK” in the presence of 10 mM DTT, respectively. The addition of DTT (Dithiothreitol) allows the solutions to have a strong reducing environment. […]

[3] = Equilibrium dialysis of dipyridamole-loaded capsule proteins (holding force); conditions: dipyridamole encapsulated instead of SN-38, external solution PBS, FIG. 10
Protocol: as §1, §2
Dipyridamole is a poorly water-soluble antianginal drug. The external solution was PBS. Referring to FIG. 10, the horizontal and the left vertical axes represent the reaction time (hr) and dipyridamole concentration (nM), respectively. In addition, the right vertical axis represents the release rate (%), or a value converted from the concentration on the left vertical axis.

Row | Molecule | Dmax [1] [nm] | Rg ([1]; listed as Monomer) [nm] | Rg ([1]; listed as monomer (mutant L-PGDS)) [nm] | concentration of SN-38 in the external DTT/PBS solution ([2]; 10 mM DTT/PBS, reached within shorter reaction time, then almost a plateau, FIG. 9(a)) [nM] | dipyridamole concentration in external solution [3] | SN-38 concentration in the external DTT/PBS solution ([2]; 10 mM DTT/PBS, at the first 48 hours of dialysis, FIG. 9(b)) | concentration of SN-38 in the external solution PBS ([2]; PBS, at the end of the monitoring period, FIG. 9(b)) [nM]
1 | B1 | 4.75 | 1.8 ± 0.04 | 1.8±0.04 | 2000 | increased over the reaction time | – | –
2 | B2 | – | – | – | – | increased only to the vicinity of the detection limit | approximately 2.0 μM | ≤ 1000
